Assay results reported in patent US20100331233A1, “CRYSTAL OF XPA AND ERCC1 COMPLEX AND USES THEREOF” (priority 2007, published 2010).
Entries after “also recorded” stand apart in the source; their conditions may differ. Like-named read-outs stand apart in the source and are kept apart here.

B4: ERCC192-214 (central domain of ERCC1, N-terminal His6 tag) (other)
chain: MGSSHHHHHHSQDPLKPGAKSNSIIVSPRQRGNPVLKFVRNVPWEFGDVIPDYVLGQSTCALFLSLRYHNLHPDYIHGRLQSLGKNFALRVLLVQVDVKDPQQALKELAKMCILADCTLILAWSPEEAGRYLETYKA
notes: 15N-labeled (and perdeuterated) in some NMR experiments

How the values were obtained:
[1] = tested on: UV20 Chinese Hamster Ovary cells; test: Restoration of UV resistance in ERCC1-deficient UV20 cells by lentivirally expressed ERCC1; assay type: cell-based
Description: Mutations in the XPA binding pocket of ERCC1 abolish NER in living cells. The ERCC1-N110A/Y145A double mutant protein was tested for its ability to interact with XPA and support NER activity in living cells. The double mutant and wild-type ERCC1 proteins were introduced into ERCC1-deficient UV20 Chinese Hamster Ovary cells using a lentiviral expression system. Proper expression of the ERCC1 proteins was detected using immunofluorescent detection using an antibody against the HA tag present on the lentivirally expressed ERCC1 protein. Two main parameters were compared for the wild-type and mutant proteins. Global NER activity was assessed by measuring the ability of the wild-type and double mutant ERCC1 proteins to restore UV resistance in UV-20 cells.

UV20 cells = test: Recruitment of ERCC1 and XPA to local UV damage foci (irradiation through polycarbonate filters, immunofluorescence); assay type: cell-based, Chinese Hamster; conditions: UV-irradiated UV20 cells, 5 μM pore filters
Description: The interaction of ERCC1 and XPA was investigated in living cells as follows (Volker et al., 2001, Gillet and Schärer, 2006): Cells were irradiated with UV irradiation through polycarbonate filters that are only translucent to UV light through their […]. This allows for the formation of spatially defined subnuclear region UV damage that can be detected as defined foci in fixed cells by antibodies against UV lesions in DNA as well as with antibodies against NER proteins recruited to these sites during the repair process.

[2] = tested on: NER activity in XPF-deficient cell extracts; test: In vitro NER assay in XPF-deficient cell extract supplemented with wild-type or mutant ERCC1-XPF; assay type: biochemical; conditions: cisplatin crosslink plasmid
From the text: Mutations in the XPA binding pocket of ERCC1 abolish NER in vitro. […] Mutant ERCC1 proteins were generated containing N110A or Y145A single mutations or a N110A/Y145A double mutation, and their activities compared to that of the wild-type ERCC1 protein.

[3] = tested on: NER activity in HeLa cell extracts; test: In vitro NER assay: excision of a 1,3-intrastrand cisplatin adduct from plasmid in HeLa cell extract with XPA peptide; assay type: biochemical; conditions: HeLa cell free extract, plasmid with 1,3-cisplatin intrastrand crosslink, peptide 46 nM to 92 μM
ERCC1-XPF = target: T1, ERCC1-XPF (Homo sapiens, UniProt P07992); test: Nuclease assay: incision of stem-loop DNA substrate by purified ERCC1-XPF; assay type: biochemical; conditions: 92 μM peptide, 0.4 mM MnCl2
T1 sequence (P07992 1-297): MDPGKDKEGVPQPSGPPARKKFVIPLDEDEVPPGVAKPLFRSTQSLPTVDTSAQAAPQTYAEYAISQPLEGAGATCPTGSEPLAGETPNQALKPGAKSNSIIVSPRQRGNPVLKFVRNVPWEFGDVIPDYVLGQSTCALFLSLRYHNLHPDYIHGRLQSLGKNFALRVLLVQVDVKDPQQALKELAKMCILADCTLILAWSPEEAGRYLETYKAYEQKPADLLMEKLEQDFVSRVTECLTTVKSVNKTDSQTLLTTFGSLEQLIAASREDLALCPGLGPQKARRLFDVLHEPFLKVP
T1 sequence (Q92889 1-916 partner): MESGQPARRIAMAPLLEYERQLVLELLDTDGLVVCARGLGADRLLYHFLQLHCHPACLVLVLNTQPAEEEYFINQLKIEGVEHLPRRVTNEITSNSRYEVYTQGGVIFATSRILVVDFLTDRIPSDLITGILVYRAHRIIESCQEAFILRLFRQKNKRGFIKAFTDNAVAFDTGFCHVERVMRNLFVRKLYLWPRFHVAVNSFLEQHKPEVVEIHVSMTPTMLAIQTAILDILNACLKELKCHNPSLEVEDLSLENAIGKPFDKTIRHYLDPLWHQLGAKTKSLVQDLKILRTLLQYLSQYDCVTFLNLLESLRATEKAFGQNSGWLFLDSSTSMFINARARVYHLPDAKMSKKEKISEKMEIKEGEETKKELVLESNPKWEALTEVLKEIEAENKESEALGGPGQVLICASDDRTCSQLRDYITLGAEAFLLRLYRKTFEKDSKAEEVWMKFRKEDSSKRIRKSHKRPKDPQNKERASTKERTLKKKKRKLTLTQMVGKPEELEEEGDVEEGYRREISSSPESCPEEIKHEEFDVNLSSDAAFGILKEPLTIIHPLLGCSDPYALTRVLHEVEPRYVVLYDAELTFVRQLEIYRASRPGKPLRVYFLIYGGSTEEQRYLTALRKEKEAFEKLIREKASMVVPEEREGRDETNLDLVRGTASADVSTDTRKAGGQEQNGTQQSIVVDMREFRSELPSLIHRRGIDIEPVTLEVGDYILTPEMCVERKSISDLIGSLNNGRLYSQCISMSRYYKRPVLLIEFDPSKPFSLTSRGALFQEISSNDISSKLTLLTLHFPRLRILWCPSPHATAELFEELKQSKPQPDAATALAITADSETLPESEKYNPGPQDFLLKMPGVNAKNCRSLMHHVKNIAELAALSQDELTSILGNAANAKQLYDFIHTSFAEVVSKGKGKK
Description: Nuclease assay. A substrate consisting of a 12 base pair stem with a 22 nucleotide loop (5′-[…](T)22[…]; SEQ ID NO:7) was 5′ end labeled using a T4 polynucleotide kinase and [γ-^32P]-ATP. […] The final reaction volume was 15 μl.

ERCC192-214 = target: T2, ERCC192-214 (Homo sapiens, UniProt P07992); test: 15N HSQC NMR chemical shift perturbation of 15N-labeled ERCC1; assay type: binding; conditions: 15N HSQC
T2 construct: an ERCC1 central domain fragment consisting of amino acids 92-214 preceded by an N-terminal hexahistidine tag; made in house; host or cells: E. coli BL21(DE3), M9 minimal media with 15N-labeled NH4Cl
T2 sequence (P07992 92-214): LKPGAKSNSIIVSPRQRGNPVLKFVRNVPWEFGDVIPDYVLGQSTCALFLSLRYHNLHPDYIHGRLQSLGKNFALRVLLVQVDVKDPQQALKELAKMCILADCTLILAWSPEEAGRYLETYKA
Description: FIG. 3 illustrates the binding of XPA67-80 in a shallow groove of ERCC1. (A) A comparison of the two dimensional HSQC spectra for ^15N-labeled ERCC192-214 in the presence and absence of an unlabeled XPA67-80 peptide. The ^15N HSQC spectra reveal significant chemical shift changes for some ERCC1 residues (labeled) in the absence or presence of unlabeled XPA67-80. (B) Combined average chemical shift perturbations are calculated as Δχave=[((Δχ1H)^2+(Δχ15N/5)^2)/2)]^1/2 for each backbone amide of ERCC1 and shown as a histogram.
NMR experiments and determination of the structure of XPA-ERCC1 complex. All NMR data were acquired in the NMR Buffer described above. […] Backbone assignments of the free ERCC192-214 and ERCC1-XPA67-80 complex were performed using a standard set of triple-resonance experiments: HNCA/HN(CO)CA, HN(CA)CB/HN(COCA)CB and HNCO/HN(CA)CO.
Identification of the ERCC1 binding site in complex with XPA. The binding site for XPA on the surface of ERCC1 (FIG. 2B) was identified using two dimensional HSQC experiments. […] The ^15N HSQC spectrum of the ERCC1-XPA complex is consistent with a slow-exchange regime, implying a dissociation equilibrium constant below 1 μM for the complex. The XPA binding site on the ERCC1 central domain was identified using the backbone assignments for […] alone and in complex with XPA (see below). […]

[4] = target: XPA (endogenous, in UV20 Chinese Hamster Ovary cells); test: cell-based or functional assay
[5] = target: T3, ERCC196-214 (central domain of ERCC1, N-terminal His6 tag) (Homo sapiens (Human), UniProt P07992 96-214); test: competition with 6FAM-labeled single-stranded 40mer DNA for ERCC1, fluorescence anisotropy, fit to a competitive binding model (Eq. 9)
T3 construct: not shown: N-terminal His6 tag
T3 sequence: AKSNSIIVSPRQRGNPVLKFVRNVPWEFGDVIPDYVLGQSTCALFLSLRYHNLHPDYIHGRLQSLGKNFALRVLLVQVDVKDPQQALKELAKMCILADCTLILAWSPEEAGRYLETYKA

[6] = target: B4; test: 15N HSQC of the ERCC1-XPA complex, slow-exchange regime
[7] = target: B4; test: competition with 6FAM-labeled single-stranded 40mer DNA for ERCC1, fluorescence polarization, best fit to Eq. 9 (legend of FIG. 7)
[8] = target: T3, ERCC196-214 (central domain of ERCC1, …); test: competition titration, fluorescence anisotropy; reference is DNA binding to the ERCC1 central domain (1.5 µM)
[9] = target: B4; test: 15N HSQC of 15N-labeled ERCC1 with added mutant peptide (data not shown)
XPA59-273 = target: T4, XPA59-273 (Homo sapiens (Human), UniProt P23025 59-273); test: gel filtration (S100) of the complex; ERCC1 central domain construct (92-214 or 96-214) not specified
T4 construct: Cloned into pET19bpps; His10 tag cleaved with Prescission protease

XPA1-273 = target: T5, XPA1-273 (Homo sapiens (Human), UniProt P23025 1-273); test: as above
T5 construct: Cloned into pET19bpps; His10 tag cleaved with Prescission protease; also called full length XPA protein
T5 sequence (P23025 whole entry): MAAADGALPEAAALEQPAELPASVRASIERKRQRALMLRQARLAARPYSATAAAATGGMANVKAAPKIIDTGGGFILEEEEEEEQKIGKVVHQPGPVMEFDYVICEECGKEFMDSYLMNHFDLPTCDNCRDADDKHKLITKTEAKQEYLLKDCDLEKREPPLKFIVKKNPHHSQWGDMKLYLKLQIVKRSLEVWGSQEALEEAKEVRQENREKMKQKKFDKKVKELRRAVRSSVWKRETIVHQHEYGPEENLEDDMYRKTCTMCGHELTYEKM

[10] = target: B4; test: sedimentation equilibrium analytical ultracentrifugation

**Q.** Which “restoration of UV resistance” value ([1]; doses of 1, 2, 4 and 10 J/m^2) does the source give for “wild-type ERCC1: wild-type ERCC1 protein, expressed as heterodimer with XPF in insect cells or lentivirally in UV20 cells” here?
**A.** fully restored UV resistance

**Q.** And the “recruitment of ERCC1 to sites of nuclear UV damage” value (UV20 cells)?
**A.** colocalized at sites containing 6-4 photoproducts

**Q.** What about the “NER activity restored by ERCC1 (heterodimer with XPF)” value [2] of the same molecule?
**A.** restored NER activity

**Q.** With “XPA67-80^F75A: mutant XPA67-80 peptide with alanine substitution at Phe75 (KIIDTGGGAILEEE)” as the molecule, how does the “effect on NER excision of the lesion-containing oligonucleotide” value [3] read?
**A.** did not affect NER activity; also recorded: has no effect

**Q.** What about the “effect on intrinsic nuclease activity of ERCC1-XPF” value (ERCC1-XPF) of the same molecule?
**A.** do not affect

**Q.** And the “binding to 15N-labeled ERCC1 by chemical shift perturbation” value (ERCC192-214)?
**A.** does not bind to ERCC1

**Q.** For “ERCC1-N110A/Y145A double mutant protein with HA tag, lentivirally expressed in UV20 Chinese Hamster Ovary cells (from UniProt P07992 1-297)”, which UV resistance of UV20 cells [4] is on record?
**A.** < 50%

B1: XPA67-80 peptide (peptide)
peptide: KIIDTGGGFILEEE
notes: Synthetic peptide made by solid phase methods, residues 67-80 of XPA; also called XPA peptide; synthetic XPA fragment
**Q.** Which results are given for B1?
**A.** Kd [5]: 540 nM; Kd [6]: < 1000 nM; Kd [7]: 300 nM; fold higher affinity than single stranded DNA [8]: ~3 fold

B2: XPA67-80^F75A mutant peptide (peptide)
peptide: KIIDTGGGAILEEE
notes: Synthetic peptide, alanine substitution at Phe75 of XPA67-80
**Q.** Does B2 bind [9]?
**A.** no binding

B3: ERCC1-N110A/Y145A: mutant ERCC1 protein with N110A/Y145A double mutation (protein)
chain: MDPGKDKEGVPQPSGPPARKKFVIPLDEDEVPPGVAKPLFRSTQSLPTVDTSAQAAPQTYAEYAISQPLEGAGATCPTGSEPLAGETPNQALKPGAKSNSIIVSPRQRGAPVLKFVRNVPWEFGDVIPDYVLGQSTCALFLSLRAHNLHPDYIHGRLQSLGKNFALRVLLVQVDVKDPQQALKELAKMCILADCTLILAWSPEEAGRYLETYKAYEQKPADLLMEKLEQDFVSRVTECLTTVKSVNKTDSQTLLTTFGSLEQLIAASREDLALCPGLGPQKARRLFDVLHEPFLKVP
modifications: left off: small tags and cut ends
notes: mutant ERCC1 protein with N110A/Y145A double mutation
**Q.** How did the “restoration of UV resistance” value [1] turn out when B3 was run?
**A.** less than 50%

**Q.** What about the “recruitment of ERCC1 to sites of nuclear UV damage” value (UV20 cells) of the same molecule?
**A.** not recruited to sites of active NER

**Q.** What about the “NER activity restored by ERCC1 (heterodimer with XPF)” value [2] of the same molecule?
**A.** only marginal NER activity

**Q.** What does the source list for B4?
**A.** binding result (XPA59-273): binds; binding result (XPA1-273): binds

B5: XPA59-93 (peptide)
peptide: MANVKAAPKIIDTGGGFILEEEEEEEQKIGKVVHQ
notes: Expressed in E. coli from pET19bpps; The N-terminal (His)10 tag was cleaved with Prescission protease; 15N-labeled in some NMR experiments; also called XPA59-93 peptide; XPA59-93 fragment
**Q.** Does B5 bind [10]?
**A.** binds
